In US20120316071A1 (published 2012):
Each block holds one binder with its values, some of them ahead of it.

Tests used:
[1] = biological target: T1, Recombinant Human DLL4 (R&D Systems Cat#1506-D4/CF) (human, UniProt Q9NR61 27-524); assay: ELISA titration, 2-fold dilutions from 20 nM Fab
T1 construct: bought recombinant protein; also called rHuman DLL4; delta-like protein 4

[2] = biological target: T2, Recombinant Human DLL4 (delta-like protein 4) (human, UniProt Q9NR61 27-524); assay: ECL (MSD) 96-well plate assay, recombinant human DLL4 coated, Fab in solution
T2 construct: Bought recombinant human DLL4 (R&D Systems Cat#1506-D4/CF), coated on the plate; also called rHuman DLL4; Delta-like 4

[3] = biological target: T2, Recombinant Human DLL4 (delta-like …); assay: ELISA, DLL4 coated plate, Fab in solution; average signal minus noise
[4] = biological target: T3, Recombinant Human DLL4 (delta-like protein 4) (human, UniProt Q9NR61 27-524); assay: ELISA, plate-coated DLL4, Fab 12.5 nM
T3 construct: also called rHuman DLL4

[5] = biological target: T3, Recombinant Human DLL4 (delta-like …); assay: ELISA, plate-coated DLL4, Fab 50 nM
[6] = biological target: T3, Recombinant Human DLL4 (delta-like …); assay: ELISA, plate-coated DLL4, Fab 100 nM
[7] = biological target: T3, Recombinant Human DLL4 (delta-like …); assay: ELISA, plate-coated DLL4, Fab 25 nM
[8] = biological target: T3, Recombinant Human DLL4 (delta-like …); assay: ELISA, plate-coated DLL4, Fab 6.25 nM
[9] = biological target: T3, Recombinant Human DLL4 (delta-like …); assay: ELISA, plate-coated DLL4, Fab 3.125 nM

B1: Fab VH1-46_IGHD6-6*01_IGHJ1*01 S102A/S103P/S104F/H111F I51E/N52L/S54T/G56H & L6_IGKJ1*01 (Fab, V domains shown)
VH: QVQLVQSGAEVKKPGASVKVSCKASGYTFTSYYMHWVRQAPGQGLEWMGIELPTGHSTSYAQKFQGRVTMTRDTSTSTVYMELSSLRSEDTAVYYCAREEYAPFSAEYFQFWGQGTLVTVSS
VL: not shown
notes: Fab; also called APFF ELTH
- Kd [1]: 1 to 10 nM

B2: Fab VH1-46_IGHD6-6*01_IGHJ1*01 S102A/S103P/S104F/H111F (H:APFF) & L6_IGKJ1*01 S28N/S30D/S31H (L:NDH) (Fab, V domains shown)
VH: QVQLVQSGAEVKKPGASVKVSCKASGYTFTSYYMHWVRQAPGQGLEWMGIINPSGGSTSYAQKFQGRVTMTRDTSTSTVYMELSSLRSEDTAVYYCAREEYAPFSAEYFQFWGQGTLVTVSS
VL: EIVLTQSPATLSLSPGERATLSCRASQNVDHYLAWYQQKPGQAPRLLIYDASNRATGIPARFSGSGSGTDFTLTISSLEPEDFAVYYCQQRSNWPPWTFGQGTKVEIKR
notes: Parent template of this NNK series; Fab made in E. coli: heavy chain from Plasmid A (CH1, His6 and Flag tags), kappa light chain from Plasmid C (kappa CL); also called H:APFF & L:NDH
- ECL signal [2]: 17200
- ELISA (Avgerage signal-noise) [3]: 0.214

B3: Fab VH1-46_IGHD6-6*01_IGHJ1*01 S102A/S103P/S104F/H111F (APFF) & L6_IGKJ1*01 S28N/S30D/S31H (NDH) (Fab, V domains shown)
VH: QVQLVQSGAEVKKPGASVKVSCKASGYTFTSYYMHWVRQAPGQGLEWMGIINPSGGSTSYAQKFQGRVTMTRDTSTSTVYMELSSLRSEDTAVYYCAREEYAPFSAEYFQFWGQGTLVTVSS
VL: EIVLTQSPATLSLSPGERATLSCRASQNVDHYLAWYQQKPGQAPRLLIYDASNRATGIPARFSGSGSGTDFTLTISSLEPEDFAVYYCQQRSNWPPWTFGQGTKVEIKR
notes: Fab made in E. coli: VH in plasmid A (CH1, His6 and Flag tags), VL in plasmid C (kappa CL); also called H:APFF & L:NDH; APFF / NDH
- ELISA signal at 12.5 nM Fab [4]: 0.192
- ELISA signal at 50 nM Fab [5]: 0.507
- ELISA signal at 100 nM Fab [6]: 0.686
- ELISA signal at 25 nM Fab [7]: 0.31
- ELISA signal at 6.25 nM Fab [8]: 0.125
- ELISA signal at 3.125 nM Fab [9]: 0.096

B4: Fab VH1-46_IGHD6-6*01_IGHJ1*01 S102A/S103P/S104F/H111F (H:APFF) & L6_IGKJ1*01 S28N/S30D/S31H A55C (Fab, V domains shown)
VH: QVQLVQSGAEVKKPGASVKVSCKASGYTFTSYYMHWVRQAPGQGLEWMGIINPSGGSTSYAQKFQGRVTMTRDTSTSTVYMELSSLRSEDTAVYYCAREEYAPFSAEYFQFWGQGTLVTVSS
VL: EIVLTQSPATLSLSPGERATLSCRASQNVDHYLAWYQQKPGQAPRLLIYDASNRCTGIPARFSGSGSGTDFTLTISSLEPEDFAVYYCQQRSNWPPWTFGQGTKVEIKR
notes: Fab made in E. coli: heavy chain from Plasmid A (CH1, His6 and Flag tags), kappa light chain from Plasmid C (kappa CL); also called H:APFF & L:NDH A55C
- ECL signal [2]: 8230
- ELISA (Avgerage signal-noise) [3]: 0.146

B8: Fab VH1-46_IGHD6-6*01_IGHJ1*01 S102A/S103P/S104F/H111F (H:APFF) & L6_IGKJ1*01 S28N/S30D/S31H A55R (Fab, V domains shown)
VH: QVQLVQSGAEVKKPGASVKVSCKASGYTFTSYYMHWVRQAPGQGLEWMGIINPSGGSTSYAQKFQGRVTMTRDTSTSTVYMELSSLRSEDTAVYYCAREEYAPFSAEYFQFWGQGTLVTVSS
VL: EIVLTQSPATLSLSPGERATLSCRASQNVDHYLAWYQQKPGQAPRLLIYDASNRRTGIPARFSGSGSGTDFTLTISSLEPEDFAVYYCQQRSNWPPWTFGQGTKVEIKR
notes: Fab made in E. coli: heavy chain from Plasmid A (CH1, His6 and Flag tags), kappa light chain from Plasmid C (kappa CL); also called H:APFF & L:NDH A55R
- ECL signal [2]: 9030
- ELISA (Avgerage signal-noise) [3]: 0.106

The remaining lines, values ahead:

- ECL signal [2]: 14200
- ELISA (Avgerage signal-noise) [3]: 0.151
B5: Fab VH1-46_IGHD6-6*01_IGHJ1*01 S102A/S103P/S104F/H111F (H:APFF) & L6_IGKJ1*01 S28N/S30D/S31H N53A (Fab, V domains shown)
VH: QVQLVQSGAEVKKPGASVKVSCKASGYTFTSYYMHWVRQAPGQGLEWMGIINPSGGSTSYAQKFQGRVTMTRDTSTSTVYMELSSLRSEDTAVYYCAREEYAPFSAEYFQFWGQGTLVTVSS
VL: EIVLTQSPATLSLSPGERATLSCRASQNVDHYLAWYQQKPGQAPRLLIYDASARATGIPARFSGSGSGTDFTLTISSLEPEDFAVYYCQQRSNWPPWTFGQGTKVEIKR
notes: Fab made in E. coli: heavy chain from Plasmid A (CH1, His6 and Flag tags), kappa light chain from Plasmid C (kappa CL); also called H:APFF & L:NDH N53A

- ECL signal [2]: 20000
- ELISA (Avgerage signal-noise) [3]: 0.383
B6: Fab VH1-46_IGHD6-6*01_IGHJ1*01 S102A/S103P/S104F/H111F (H:APFF) & L6_IGKJ1*01 S28N/S30D/S31H A55S (Fab, V domains shown)
VH: QVQLVQSGAEVKKPGASVKVSCKASGYTFTSYYMHWVRQAPGQGLEWMGIINPSGGSTSYAQKFQGRVTMTRDTSTSTVYMELSSLRSEDTAVYYCAREEYAPFSAEYFQFWGQGTLVTVSS
VL: EIVLTQSPATLSLSPGERATLSCRASQNVDHYLAWYQQKPGQAPRLLIYDASNRSTGIPARFSGSGSGTDFTLTISSLEPEDFAVYYCQQRSNWPPWTFGQGTKVEIKR
notes: Fab made in E. coli: heavy chain from Plasmid A (CH1, His6 and Flag tags), kappa light chain from Plasmid C (kappa CL); also called H:APFF & L:NDH A55S

- Kd [1]: 1 to 10 nM
B7: Fab VH1-46_IGHD6-6*01_IGHJ1*01 S102A/S103P/S104F/H111F I51V/N52L/S54T/G56H & L6_IGKJ1*01 (Fab, V domains shown)
VH: QVQLVQSGAEVKKPGASVKVSCKASGYTFTSYYMHWVRQAPGQGLEWMGIVLPTGHSTSYAQKFQGRVTMTRDTSTSTVYMELSSLRSEDTAVYYCAREEYAPFSAEYFQFWGQGTLVTVSS
VL: not shown
notes: Fab; also called APFF VLTH; APPF VLTH

- ELISA signal at 12.5 nM Fab [4]: 0.215
- ELISA signal at 50 nM Fab [5]: 0.49
- ELISA signal at 100 nM Fab [6]: 0.653
- ELISA signal at 25 nM Fab [7]: 0.323
- ELISA signal at 6.25 nM Fab [8]: 0.13
- ELISA signal at 3.125 nM Fab [9]: 0.099
B9: Fab VH1-46_IGHD6-6*01_IGHJ1*01 S102A/S103P/S104F/H111F (APFF) & L6_IGKJ1*01 S28N/S30D/S31H S52T (Fab, V domains shown)
VH: QVQLVQSGAEVKKPGASVKVSCKASGYTFTSYYMHWVRQAPGQGLEWMGIINPSGGSTSYAQKFQGRVTMTRDTSTSTVYMELSSLRSEDTAVYYCAREEYAPFSAEYFQFWGQGTLVTVSS
VL: EIVLTQSPATLSLSPGERATLSCRASQNVDHYLAWYQQKPGQAPRLLIYDATNRATGIPARFSGSGSGTDFTLTISSLEPEDFAVYYCQQRSNWPPWTFGQGTKVEIKR
notes: Fab made in E. coli: VH in plasmid A (CH1, His6 and Flag tags), VL in plasmid C (kappa CL); also called H:APFF & L:NDH S52T; APFF / NDH/S52T
